Positions count from the first letter of the chain named.
T1: IL1RL2 over-expressed on Expi293 cells (UniProt Q9HB29 20-575, limits assumed)
T1 construct: whole, on cells; Target of the flow cytometry assay; MFI ratio is over-expressing cells over parent cells
T1 sequence (looked up): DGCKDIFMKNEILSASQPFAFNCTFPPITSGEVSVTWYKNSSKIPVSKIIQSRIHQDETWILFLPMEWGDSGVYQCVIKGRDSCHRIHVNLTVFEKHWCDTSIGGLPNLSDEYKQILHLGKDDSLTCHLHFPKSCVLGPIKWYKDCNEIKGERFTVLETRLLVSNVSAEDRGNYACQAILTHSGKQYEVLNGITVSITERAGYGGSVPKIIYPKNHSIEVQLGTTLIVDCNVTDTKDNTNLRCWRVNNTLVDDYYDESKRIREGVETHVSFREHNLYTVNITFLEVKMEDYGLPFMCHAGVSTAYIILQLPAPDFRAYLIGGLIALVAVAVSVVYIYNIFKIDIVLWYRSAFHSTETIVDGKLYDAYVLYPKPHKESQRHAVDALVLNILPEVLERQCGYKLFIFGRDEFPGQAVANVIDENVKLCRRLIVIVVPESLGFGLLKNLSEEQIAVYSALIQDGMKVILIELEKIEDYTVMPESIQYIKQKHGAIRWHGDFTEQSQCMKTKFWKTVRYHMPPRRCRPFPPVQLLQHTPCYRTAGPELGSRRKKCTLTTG

B1: IL1RL2-39 (VHH)
VHH: EVQLVESGGGLVQPGGSLRLSCAASGRAFSSTVMGWFRQAPGKEREFVAGIGWTDAYTEYADSVKGRFTISADNSKNTAYLQMNSLKPEDTAVYYCAAANEYWVYVNPNRYTWGQGTLVTVSS
notes: VHH-Fc based on IgG2 Fc
B2: IL1RL2-49 (VHH)
VHH: EVQLVESGGGLVQPGGSLRLSCAASGFTFSTYWMGWFRQAPGKEREFVATIPWIGAHTEYADSVKGRFTISADNSKNTAYLQMNSLKPEDTAVYYCAEANEYWGYVNPNRYTWGPGTLVTVSH
notes: VHH-Fc based on IgG2 Fc
B3: IL1RL2-10 (VHH)
VHH: EVQLVESGGGLVQPGGSLRLSCAASGFTFSNHIMGWFRQAPGKEREWVSGINRDGSTSYADSVKGRFTISADNSKNTAYLQMNSLKPEDTAVYYCAKARQITGWDFDYWGQGTLVTVSS
notes: VHH-Fc based on IgG2 Fc
B4: IL1RL2-21 (VHH)
VHH: EVQLVESGGGLVQPGGSLRLSCAASGRTFSRYAMGWFRQAPGKEREFVAAINWSGDRTYYADSVKGRFTISADNSKNTAYLQMNSLKPEDTAVYYCAVSQPLNYYTYYDARRYDWGQGTLVTVSS
notes: VHH-Fc based on IgG2 Fc
B5: IL1RL2-36 (VHH)
VHH: B4 VHH with F29Y, S30N, R31S, A33S, N52S, D56E, R57H
notes: VHH-Fc based on IgG2 Fc
B6: IL1RL2-37 (VHH)
VHH: B4 VHH with R27G, T28A, R31T, Y32V, N52S, G55R, D56G, Y59F
notes: VHH-Fc based on IgG2 Fc
B7: IL1RL2-41 (VHH)
VHH: B4 VHH with R27G, I51V, D56A
notes: VHH-Fc based on IgG2 Fc
B8: IL1RL2-43 (VHH)
VHH: B4 VHH with R27G, N52S, D56A, R57N
notes: VHH-Fc based on IgG2 Fc
B9: IL1RL2-55 (VHH)
VHH: EVQLVESGGGLVQPGGSLRLSCAASGYTDSNLWMGWFRQAPGKEREFVASIDWSGRSTYYADSVKGRFTISADNSKNTAYLQMNSLKPEDTAVYYCAANGIESYGWGNRHFNWGQGTLVTVSS
notes: VHH-Fc based on IgG2 Fc
B10: IL1RL2-13 (VHH)
VHH: B9 VHH with A49G, S54I, G55P, R56S, S57N, T58I
notes: VHH-Fc based on IgG2 Fc
B11: IL1RL2-19 (VHH)
VHH: B9 VHH with I51V, D52N, R56K, S57D
notes: VHH-Fc based on IgG2 Fc
B12: IL1RL2-16 (VHH)
VHH: EVQLVESGGGLVQPGGSLRLSCAASGSDFSIKAMGWFRQAPGKEREFVADIYTSTTTNYTNYADSVKGRFTISADNSKNTAYLQMNSLKPEDTAVYYCAAIAYEEGVYRWDWGQGTLVTVSS
notes: VHH-Fc based on IgG2 Fc
B13: IL1RL2-32 (VHH)
VHH: B12 VHH with S27N, Y103H
notes: VHH-Fc based on IgG2 Fc
B14: IL1RL2-42 (VHH)
VHH: EVQLVESGGGLVQPGGSLRLSCAASGRTFSSYDMGWFRQAPGKEREFVAAIVWIGGRTYYADSVKGRFTISADNSKNTAYLQMNSLKPEDTAVYYCADVNGDWGQGTLVTVSS
notes: VHH-Fc based on IgG2 Fc
B15: IL1RL2-44 (VHH)
VHH: B14 VHH with T28S, S31T, F47L, V52S, I54S, R57S
notes: VHH-Fc based on IgG2 Fc
B16: IL1RL2-48 (VHH)
VHH: B14 VHH with F47L, V52T, I54N, G55S, R57S, Y59L
notes: VHH-Fc based on IgG2 Fc
B17: IL1RL2-56 (VHH)
VHH: B14 VHH with S31T, V52S, I54G, R57L, Y59V
notes: VHH-Fc based on IgG2 Fc
B18: IL1RL2-26 (VHH)
VHH: EVQLVESGGGLVQPGGSLRLSCAASGSIFSIYDMGWFRQAPGKEREFVAAISGWSGGRTSYADSVKGRFTISADNSKNTAYLQMNSLKPEDTAVYYCAAIAYEEGVYRWDWGQGTLVTVSS
notes: VHH-Fc based on IgG2 Fc
B19: IL1RL2-28 (VHH)
VHH: EVQLVESGGGLVQPGGSLRLSCAASGFTLNDYAMGWFRQAPGKEREWVSSINWSGSTYYADSVKGRFTISADNSKNTAYLQMNSLKPEDTAVYYCAKAYSSSWPYFDYWGQGTLVTVSS
notes: VHH-Fc based on IgG2 Fc
B20: IL1RL2-33 (VHH)
VHH: EVQLVESGGGLVQPGGSLRLSCAASGRSFNLYYMGWFRQAPGKEREFVASIFTDDGDSYYADSVKGRFTISADNSKNTAYLQMNSLKPEDTAVYYCAAGAGWAGTMTDYNWGQGTLVTVSS
notes: VHH-Fc based on IgG2 Fc
B21: IL1RL2-38 (VHH)
VHH: EVQLVESGGGLVQPGGSLRLSCAASGRSRYGMGWFRQAPGKEREFVAAINWNGASTYYADSVKGRFTISADNSKNTAYLQMNSLKPEDTAVYYCAVSQPLNYYTYYDARRYDWGQGTLVTVSS
notes: VHH-Fc based on IgG2 Fc
B22: IL1RL2-40 (VHH)
VHH: EVQLVESGGGLVQPGGSLRLSCAASGFTFSTYTMGWFRQAPGKEREFVAGIAWNGASGTLTSYADSVKGRFTISADNSKNTAYLQMNSLKPEDTAVYYCASAGRWGQGTLVTVSS
notes: VHH-Fc based on IgG2 Fc
B23: IL1RL2-45 (VHH)
VHH: EVQLVESGGGLVQPGGSLRLSCAASGFDFSVSWMGWFRQAPGKEREFVGSIDWITTNIYYADSVKGRFTISADNSKNTAYLQMNSLKPEDTAVYYCAANIEAGTTKSQGWGQGTLVTVSS
notes: VHH-Fc based on IgG2 Fc
B24: IL1RL2-46 (VHH)
VHH: EVQLVESGGGLVQPGGSLRLSCAASGFTLGDYVMGWFRQAPGKEREFVATIRWGTTDTYYADSVKGRFTISADNSKNTAYLQMNSLKPEDTAVYYCQSWYYDILTGYSDYYYMDVWGQGTLVTVSS
notes: VHH-Fc based on IgG2 Fc
B25: IL1RL2-47 (VHH)
VHH: EVQLVESGGGLVQPGGSLRLSCAASGGTFSNYAMGWFRQAPGKEREFVAAIGGVTDYADSVKGRFTISADNSKNTAYLQMNSLKPEDTAVYYCAAFAYEEGVYRWDWGQGTLVTVSS
notes: VHH-Fc based on IgG2 Fc
B26: IL1RL2-50 (VHH)
VHH: EVQLVESGGGLVQPGGSLRLSCAASGSIFSIDAMGWFRQAPGKERESVAIIKTDGSTYYADSVKGRFTISADNSKNTAYLQMNSLKPEDTAVYYCAHRLGYCSGGSCYWPNYFDYWGQGTLVTVSS
notes: VHH-Fc based on IgG2 Fc
B27: IL1RL2-51 (VHH)
VHH: EVQLVESGGGLVQPGGSLRLSCAASGFTFSPSWMGWFRQAPGKEREWVSSIDYSAEDTYYADSVKGRFTISADNSKNTAYLQMNSLKPEDTAVYYCAAFDGYSGSDWGQGTLVTVSS
B28: IL1RL2-52 (VHH)
VHH: EVQLVESGGGLVQPGGSLRLSCAASGRTSTYDMGWFRQAPGKEREFVGAISWSGGLTSYADSVKGRFTISADNSKNTAYLQMNSLKPEDTAVYYCADVNGDWGQGTLVTVSS
notes: VHH-Fc based on IgG2 Fc
B29: IL1RL2-53 (VHH)
VHH: EVQLVESGGGLVQPGGSLRLSCAASGSTFSPNVMGWFRQAPGKEREFVAAITWSGSSTTEYADSVKGRFTISADNSKNTAYLQMNSLKPEDTAVYYCAAANEYWVYVNPNRYTWGQGTLVTVSS
notes: VHH-Fc based on IgG2 Fc
B30: IL1RL2-156 (antibody, V domains shown)
VH: EVQLLESGGGLVQPGGSLRLSCAASGFTFSSYWNHWVRQAPGKGLEWVSTIGPSGTSTYYADSVKGRFTISRDNSKNTLYLQMNSLRAEDTAVYYCAKSTPNIPLAYWGQGTLVTVSS
VL: DIQMTQSPSSLSASVGDRVTITCRASQSIRRYLNWYQQKPGKAPKLLIYDASSSQSGVPSRFSGSGSGTDFTLTISSLQPEDFATYYCQQSTILPLTFGQGTKVEIK
notes: IgG2
B31: IL1RL2-158 (antibody, V domains shown)
VH: EVQLLESGGGLVQPGGSLRLSCAASGFTFSSYFMSWVRQAPGKGLEWVSEISPSGSETYYADSVKGRFTISRDNSKNTLYLQMNSLRAEDTAVYYCARAYSSGWSLPFDYWGQGTLVTVSS
VL: DIQMTQSPSSLSASVGDRVTITCRASQGVRTSLAWYQQKPGKAPKLLIYATSTLQSGVPSRFSGSGSGTDFTLTISSLQPEDFATYYCAQGLRKPKTFGQGTKVEIK
notes: IgG2
B32: IL1RL2-162 (antibody, V domains shown)
VH: EVQLLESGGGLVQPGGSLRLSCAASGFTFNHYGMGWVRQAPGKGLEWVSSIGANGAPTYYADSVKGRFTISRDNSKNTLYLQMNSLRAEDTAVYYCAKSYLSGTFDYWGQGTLVTVSS
VL: DIQMTQSPSSLSASVGDRVTITCQGGSPRSYYASWYQQKPGKAPKLLIYHTSRLQDGVPSRFSGSGSGTDFTLTISSLQPEDFATYYCQSYDKSNVVFGQGTKVEIK
notes: IgG2

The binders below were run against T1, IL1RL2 over-expressed on Expi293 cells (assay: flow cytometry, over-expressing Expi293 vs parent cells, 100 nM antibody;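 also: ratio is mean fluorescence intensity on over-expressing Expi293 cells divided by that measured on parental Expi293 cells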).
Protocol: All incubations and washes were in buffer containing PBS+1% BSA. MFI Ratio is defined by the mean fluorescence intensity (MFI) of the cytokine over-expressing Expi293 cell over the Expi293 parent cell. […] EC50 was calculated in GraphPad Prism.

Going from B1 to B2, the “100 nM FACS (MFI Ratio)” value rises from 15.3 to 190.

First: B3
Second: B4
The “100 nM FACS (MFI Ratio)” value of the first is lower: 12.7 for the first, 20.9 for the second.

Going from B5 to B6, the “100 nM FACS (MFI Ratio)” value rises from 14 to 16.9.

Compared with B7, B8 is lower in “100 nM FACS (MFI Ratio)” value: 5.33 for the first, 1.62 for the second.

Compared with B9, B10 is lower in “100 nM FACS (MFI Ratio)” value: 49.7 for the first, 11.3 for the second.

Compared with B11, B12 is higher in “100 nM FACS (MFI Ratio)” value: 13.8 for the first, 37.6 for the second.

Compared with B13, B14 is lower in “100 nM FACS (MFI Ratio)” value: 20.1 for the first, 2.47 for the second.

Compared with B15, B16 is higher in “100 nM FACS (MFI Ratio)” value: 0.95 for the first, 7.83 for the second.

First: B17
Second: B18
The “100 nM FACS (MFI Ratio)” value of the first is lower: 3.83 for the first, 39.5 for the second.

Going from B19 to B20, the “100 nM FACS (MFI Ratio)” value rises from 13.6 to 15.2.

Going from B21 to B22, the “100 nM FACS (MFI Ratio)” value rises from 7.41 to 31.

Compared with B23, B24 is higher in “100 nM FACS (MFI Ratio)” value: 6.82 for the first, 15.6 for the second.

Compared with B25, B26 is higher in “100 nM FACS (MFI Ratio)” value: 13.2 for the first, 151 for the second.

Compared with B27, B28 is lower in “100 nM FACS (MFI Ratio)” value: 9.68 for the first, 6.88 for the second.

First: B29
Second: B30
The “100 nM FACS (MFI Ratio)” value of the first is higher: 4.14 for the first, 0.69 for the second.

First: B31
Second: B32
The “100 nM FACS (MFI Ratio)” value of the first is higher: 14.8 for the first, 4.26 for the second.
